To fix the notation:
B1: INTS4 (parent)
chain: TIIEPAGESDNPLRFTSGLVVALD
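Further: lentivirally expressed fusions sorted by FACS into six bins by GFP to DsRed ratio, PSI derived from sequencing read proportions per bin multiplied by bin number.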

This series covers variants of B1. Kind of series: protein stability index of a GFP-peptide fusion (GPS, HEK-293T) (PSI 1-6); higher = more stable. To be noted: c terminus: a fixed tail appended.
As to TIIEPAGESRNPLRFTSGLVVALD [D10R], the protein stability index turned out to be 2.23.
With TIIEPAGESGNPLRFTSGLVVALD [D10G], the protein stability index amounted to 2.56.
As to TIIEPAGESMNPLRFTSGLVVALD [D10M], the protein stability index is 2.15.
TIIEPAGESQNPLRFTSGLVVALD [D10Q]: the protein stability index is 2.49.
As for TIIEPAGESCNPLRFTSGLVVALD [D10C], the figure is 2.08; as for TIIEPAGESANPLRFTSGLVVALD [D10A], 2.96.
In the case of TIIEPAGISDNPLRFTSGLVVALD [E8I], the protein stability index is 2.02.
Take TIIEPAGDSDNPLRFTSGLVVALD [E8D]: the protein stability index is 2.88.
As for TIIEPAGCSDNPLRFTSGLVVALD [E8C], the figure is 2.2.
Turning to TIIEPAGMSDNPLRFTSGLVVALD [E8M], the protein stability index stood at 2.54.
As for TIIEPAGASDNPLRFTSGLVVALD [E8A], the protein stability index came to 2.23.
As for TIIEPAGTSDNPLRFTSGLVVALD [E8T], the figure is 2.61.
As for TIIEPAGHSDNPLRFTSGLVVALD [E8H], the figure is 2.23; as for TIIEPAGGSDNPLRFTSGLVVALD [E8G], 2.32.
For TIIEPAGFSDNPLRFTSGLVVALD [E8F], the protein stability index worked out at 2.19.
As for TIIEPAGKSDNPLRFTSGLVVALD [E8K], the figure is 1.9; as for TIIEPAGLSDNPLRFTSGLVVALD [E8L], 2.37; as for TIIEPAGQSDNPLRFTSGLVVALD [E8Q], 2.62.
Consider TIIEPAGWSDNPLRFTSGLVVALD [E8W], for which the protein stability index was found to be 1.5.
The value for TIIEPAGNSDNPLRFTSGLVVALD [E8N] was 2.23; that for TIIEPAGRSDNPLRFTSGLVVALD [E8R] was 3.15; that for TIIEPAGYSDNPLRFTSGLVVALD [E8Y] was 1.99.
In the case of TIIEPAGSSDNPLRFTSGLVVALD [E8S], the protein stability index was 3.08.
As for TIIEPAGPSDNPLRFTSGLVVALD [E8P], the figure is 2.15; as for TIIEPAGVSDNPLRFTSGLVVALD [E8V], 2.66; as for TIIEPRGESDNPLRFTSGLVVALD [A6R], 3.07.
As for TIIEPCGESDNPLRFTSGLVVALD [A6C], the figure is 2.47; as for TIIEPLGESDNPLRFTSGLVVALD [A6L], 2.2; as for TIIEPVGESDNPLRFTSGLVVALD [A6V], 2.62.
The value for TIIEPYGESDNPLRFTSGLVVALD [A6Y] was 2.19; that for TIIEPPGESDNPLRFTSGLVVALD [A6P] was 2.99; that for TIIEPEGESDNPLRFTSGLVVALD [A6E] was 3.74.
As to TIIEPIGESDNPLRFTSGLVVALD [A6I], the protein stability index worked out at 2.73.
The value for TIIEPWGESDNPLRFTSGLVVALD [A6W] was 1.78; that for TIIEPQGESDNPLRFTSGLVVALD [A6Q] was 2.72; that for TIIEPKGESDNPLRFTSGLVVALD [A6K] was 2.98.
As to TIIEPGGESDNPLRFTSGLVVALD [A6G], the protein stability index amounted to 2.94.
As to TIIEPHGESDNPLRFTSGLVVALD [A6H], the protein stability index amounted to 2.75.
As for TIIEPDGESDNPLRFTSGLVVALD [A6D], the figure is 3.7; as for TIIEPMGESDNPLRFTSGLVVALD [A6M], 2.63; as for TIIEPFGESDNPLRFTSGLVVALD [A6F], 2.52.
As for TIIEPSGESDNPLRFTSGLVVALD [A6S], the figure is 2.54; as for TIIEPNGESDNPLRFTSGLVVALD [A6N], 2.52; as for TIIEPTGESDNPLRFTSGLVVALD [A6T], 2.61.
With TIEEPAGESDNPLRFTSGLVVALD [I3E], the protein stability index turned out to be 4.4.
As for TILEPAGESDNPLRFTSGLVVALD [I3L], the figure is 2.76.
TIFEPAGESDNPLRFTSGLVVALD [I3F]: the protein stability index is 2.38.
As for TICEPAGESDNPLRFTSGLVVALD [I3C], the figure is 3.2; as for TIHEPAGESDNPLRFTSGLVVALD [I3H], 3.9.
As for TIKEPAGESDNPLRFTSGLVVALD [I3K], the figure is 3.85; as for TIVEPAGESDNPLRFTSGLVVALD [I3V], 4.2.
As for TIQEPAGESDNPLRFTSGLVVALD [I3Q], the figure is 3.45; as for TIAEPAGESDNPLRFTSGLVVALD [I3A], 4.03; as for TITEPAGESDNPLRFTSGLVVALD [I3T], 3.4.
Consider TIGEPAGESDNPLRFTSGLVVALD [I3G], for which the protein stability index worked out at 3.7.
The value for TIDEPAGESDNPLRFTSGLVVALD [I3D] was 4.07.
As for TIMEPAGESDNPLRFTSGLVVALD [I3M], the figure is 3.23; as for TINEPAGESDNPLRFTSGLVVALD [I3N], 3.51; as for TIWEPAGESDNPLRFTSGLVVALD [I3W], 2.88.
As for TISEPAGESDNPLRFTSGLVVALD [I3S], the protein stability index amounted to 4.07.
As for TIYEPAGESDNPLRFTSGLVVALD [I3Y], the figure is 3.29; as for TIREPAGESDNPLRFTSGLVVALD [I3R], 3.06.
Consider TIPEPAGESDNPLRFTSGLVVALD [I3P], for which the protein stability index worked out at 3.42.
With TIIEPAGERDNPLRFTSGLVVALD [S9R], the protein stability index worked out at 2.79.
The value for TIIEPAGECDNPLRFTSGLVVALD [S9C] was 2.28; that for TIIEPAGELDNPLRFTSGLVVALD [S9L] was 2.38; that for TIIEPAGEEDNPLRFTSGLVVALD [S9E] was 3.73.
As for TIIEPAGENDNPLRFTSGLVVALD [S9N], the figure is 3.25; as for TIIEPAGEADNPLRFTSGLVVALD [S9A], 2.57; as for TIIEPAGEKDNPLRFTSGLVVALD [S9K], 2.87.
The value for TIIEPAGEYDNPLRFTSGLVVALD [S9Y] was 2.48; that for TIIEPAGEPDNPLRFTSGLVVALD [S9P] was 3.25.
As to TIIEPAGEWDNPLRFTSGLVVALD [S9W], the protein stability index stood at 2.19.
The value for TIIEPAGEGDNPLRFTSGLVVALD [S9G] was 2.75; that for TIIEPAGEIDNPLRFTSGLVVALD [S9I] was 2.78.
As to TIIEPAGEQDNPLRFTSGLVVALD [S9Q], the protein stability index came to 2.77.
For TIIEPAGEVDNPLRFTSGLVVALD [S9V], the protein stability index stood at 2.92.
As for TIIEPAGEFDNPLRFTSGLVVALD [S9F], the figure is 2.65.
The value for TIIEPAGEHDNPLRFTSGLVVALD [S9H] was 3.17; that for TIIEPAGEDDNPLRFTSGLVVALD [S9D] was 3.29.
The value for TIIEPAGEMDNPLRFTSGLVVALD [S9M] was 3.16; that for TIIEPAGETDNPLRFTSGLVVALD [S9T] was 2.9; that for TIIEPAGESDHPLRFTSGLVVALD [N11H] was 2.47.
In the case of TIIEPAGESDKPLRFTSGLVVALD [N11K], the protein stability index turned out to be 2.86.
The value for TIIEPAGESDLPLRFTSGLVVALD [N11L] was 2.42; that for TIIEPAGESDIPLRFTSGLVVALD [N11I] was 2.42; that for TIIEPAGESDGPLRFTSGLVVALD [N11G] was 2.38.
With TIIEPAGESDPPLRFTSGLVVALD [N11P], the protein stability index came out at 2.27.
On to TIIEPAGESDEPLRFTSGLVVALD [N11E], for which the protein stability index was determined as 3.33.
The value for TIIEPAGESDAPLRFTSGLVVALD [N11A] was 3.13; that for TIIEPAGESDDPLRFTSGLVVALD [N11D] was 3.33; that for TIIEPAGESDCPLRFTSGLVVALD [N11C] was 2.9.
For the variant TIIEPAGESDMPLRFTSGLVVALD [N11M], the protein stability index is 2.21.
For TIIEPAGESDFPLRFTSGLVVALD [N11F], the protein stability index is 1.66.

The values above are taken from the supplement of paper PMC10567573.
